The source of these data is patent US12065505B2, “Antibodies and antigen binding peptides for factor XIa inhibitors and uses thereof” (Bristol-Myers Squibb Company, priority 2021, dated 2024).

Like-named read-outs stand apart in the source and are kept apart here. Bounds are passed on as bounds.

The nature of data set [1]: SPR (Biacore) Protein A mAb capture, Compound A injected. The conditions noted are these: 37° C., binding to Compound A, for rank ordering only. The procedure:
The binding of hybridoma expressed 26D5 parent mAb (VH SEQ ID NO: 83 and VL SEQ ID NO: 98 in IgG1 f format)(P1-072224) and affinity matured mAbs to Compound A was examined by SPR (Biacore™) using a protein A capture method. The running buffer was 1×PBS (phosphate buffered saline, pH 7.4) with 0.05% Tween 20 and 2% DMSO. Binding experiments were carried out at 37° C. Protein A was coated on a CM5 S-series sensor chip (Cytiva, Cat. No. 29149603) at high density (2000+ RUs of protein A). The immobilization of protein A was carried out using the standard amine coupling immobilization procedure recommended by the manufacturer. The affinity matured antibody was then captured at a concentration of 2 ug/mL on the protein A surface at a flow rate of 3 uL/min for 2 minutes. Compound A was then injected over the captured antibody at concentrations spanning 100-3 nM (100, 50, 25, 12.5, 6.25, 3.125 nM) (FIG. 10) and for screening concentrations spanning 100-3 nM (100, 33, 11 nM) for 2 minutes at a flow rate of 100 uL/min and allowed to dissociate for at least 450 seconds. The chip surface was regenerated after each cycle with a 40 second pulse of 10 mM Glycine, pH 1.5. Background binding to the protein A surface alone was used to subtract non-specific binding. All experiments were run on a Biacore T200 surface plasmon resonance instrument using Biacore T200 Control software v. 2. Data analysis was performed using Biacore T200 evaluation software v 3.1. Apparent affinities were determined for rank ordering only since dissociation rates were too slow to be measured by Biacore. The names of the mAbs in Table 10 refer to mAbs having the H and L chain sequences of the corresponding Fabs in Table 3 in an IgG1f format.
On the technique in general: In SPR one partner is held on a chip, and binding of the other changes the refractive index at the surface.

Data set [2] in a line: Competitive TR-FRET assay modified for mAbs and Fabs (T0, T24, T48). It is filed as binding. The conditions noted are these: 37° C.; for T24 hr IC50 shift: IC50 shift at 24 hr relative to T0; for T48 hr IC50 shift: IC50 shift at 48 hr relative to T0. How it is done:
A competitive TR-FRET (time-resolved fluorescence resonance energy transfer) assay was developed to rank-order the dissociation of α-Compound A mAbs from Compound A as equilibrium is reached at 37° C. The assay buffer was HBS-N (10 mM HEPES, 150 mM NaCl, pH 7.4; GE Healthcare), 0.1% (w/v) BSA (bovine serum albumin; Sigma), 2% DMSO (dimethyl sulfoxide; Sigma). All reagents were prepared in assay buffer and dispensed in equal volumes into white 384 microplates with final volume of 20 μl per well at the following final concentrations: 4 nM COMPOUND 5, the biotinylated analog of COMPOUND 2, a 100 0.1 nM 7-pt titration of human α-Compound A antibodies, 0.1 nM europium-labeled α-mouse IgG (LANCE Eu-W1024; PerkinElmer), 5 nM streptavidin-D2 (Cisbio), and 4 nM mAb 26D5 VH_A10G_Y33A_S53P_M89V_G95A; VK_W32N_H38Q (P1-075621, the second-round optimization parent 26D5-295-B08 formatted with mouse IgG Fc). COMPOUND 5 and α-Compound A antibody titrations were added first to the microplate, and were subjected to an initial incubation at 37° C., 1000 rpm, for one hour to facilitate antibody binding to the compound. After the initial incubation period, the europium α-mouse IgG, streptavidin-D2, and 26D5-mouse IgG (P1-075621) were added sequentially, then the plate was returned to 37° C., 1000 rpm incubation. Microplates were read using a Perkin Elmer EnVision plate reader, and the measured FRET signal was defined as [665 nm]/[620 nm]*10,000. Microplates were read at 30 minutes (T0) and after 24 hour (T24) intervals. For each antibody titration, the FRET signal was converted to % Inhibition relative to wells without α-Compound A antibody: (100 ((FRET at [antibody concentration]/FRET at 0 nM)*100). The % inhibition antibody titrations were plotted using TIBCO Spotfire (v.7), and the IC50 was determined using a 4-parameter model curve fit. The IC50s at each timepoint were reported, as well as the IC50 curve shift relative to T0. An IC50 curve shift indicated α-Compound A antibody dissociation from the biotinylated compound as the assay reached equilibrium, which subsequently allowed 26D5-mouse IgG1 (P1-075621) competitor to bind and generate the FRET signal detected in the assay.
The competitive TR-FRET assay defined above was also modified to assess optimized 26D5 antibody progeny that were reformatted as Fabs. The α-Compound A antibody and Fab titration series were extended to 250 0.244 nM (11-pt titration), and replicates of each concentration were collected in quadruplicate. The assay incubation was extended to include an additional 48 hr timepoint to ensure equilibrium was reached, and T48 hr IC50 and IC50 shifts were reported. The % inhibition titrations were plotted in Graphpad Prism (v.8) and fit to a 4-parameter model. All other experimental setup conditions were otherwise identical to the antibody TF-FRET assay.
Competitive FRET data collected for affinity-optimized α-Compound A 26D5 progeny comparing human antibodies and Fabs are shown in FIG. 14 and Table 13. Each panel represents a single α-Compound A sequence, with antibody (mAb, solid lines, circles) and Fab (dotted lines, triangles) formats overlaid. […] The names of the mAbs/Fabs in Table 13 refer to the corresponding sequences in Tables 1-3. All mAbs listed in Table 13 were in a human IgG1f/LC kappa format.
(In general: TR-FRET usually uses a lanthanide donor and a delayed reading to cut background.)

The mark [3] stands for this setting: apparent affinity, read-out: KD.
Where [4] appears, read: read at 30 minutes (T0), competitor 26D5-mouse IgG (P1-075621), read-out: T0 IC50.

B1: 26D5-75768-348-A10-mAb: human IgG1f/kappa mAb; VH SEQ ID NO: 56, VL SEQ ID NO: 89 (antibody, V domains shown)
VH: EVQLVESGGGLIQPGGSLRLSCAASGFTVSSNAVSIVRQAPGKGLEWVAYIYPGGRTYYADSVKGRFTISRDNSKNTLYLQMNSLRAEDTAVYYCTIGGFGGGDYWGQGTLVTVSS
VL: DIQMTQSPSSVSASVGDRVTITCRASQGISSNNQWYQQKPGKAPKLLIYYASSLQSGVPSRFSGSGSGTDFTLTISSLQPEDFATYYCQQGNEFPLTFGGGTKVEIK
The IC50 is the point on the concentration scale where inhibition reaches its midpoint. B1: the Kd in data set [1] (setting [3]) was < 0.1 nM; in data set [1] (apparent), <0.00041 s⁻¹. Moreover, the “Ka” value in data set [1] (apparent) was determined as 3.8e+06 M⁻¹ s⁻¹. Also, the IC50 in data set [2] (24 hr, read-out: T24 hr IC50) came to 2.2 nM; in data set [2] (48 hr, read-out: T48 hr IC50) it was 2.3 nM; in data set [2] (setting [4]), 1.2 nM. The “T24 hr IC50 shift” value in data set [2] turned out to be 1.0 nM. Moreover, in data set [2], the “T48 hr IC50 shift” value was determined as 1.1 nM.

B2: 26D5-75229-343-A10-mAb: human IgG1f/kappa mAb; VH SEQ ID NO: 52, VL SEQ ID NO: 84 (antibody, V domains shown)
VH: EVQLVESGGGLIQPGGSLRLSCAASGFTVSSNAMSWVRQAPGKGLEWVSYIYPGGRTYYADSVKGRFTISRDNSKNTLYLQMNSLRAEDTAVYYCARAGFGGPDYWGQGTLVTVSS
VL: DIQMTQSPSSVSASVGDRVTITCRASQGISSNLAWYQQKPGKAPKLLIYAASSLQSGVPSRFSGSGSGTDFTLTISSLQPEDFATYYCQQANQFPLTFGGGTKVEIK
Regarding B2, the Kd was < 0.07 nM in data set [1] (setting [3]) and <5e-05 s⁻¹ in data set [1] (apparent). For the same molecule, the “Ka” value in data set [1] (apparent) was 770000 M⁻¹ s⁻¹. For the same molecule, the concentration for half-maximal inhibition (IC50) in data set [2] (24 hr, read-out: T24 hr IC50) was found to be 2.4 nM; in data set [2] (48 hr, read-out: T48 hr IC50), 2.5 nM; in data set [2] (setting [4]), 1.3 nM. In data set [2], the “T24 hr IC50 shift” value came to 1.1 nM. Besides, the “T48 hr IC50 shift” value in data set [2] stood at 1.1 nM.

B3: 26D5-296-C07-mAb: human IgG1f/kappa mAb; VH SEQ ID NO: 77, VL SEQ ID NO: 94 (antibody, V domains shown)
VH: EVQLVESGGGLIQPGGSLRLSCAASGITVSSNYMSWVRQAPGKGLEWVSFIYSGGRTYYADSVKGRFTISRDNSKNTLYLQMNSLRAEDTAVYYCARGGFGGGDYWGQGTLVTVSS
VL: DIQMTQSPSSVSASVGDRVTITCRASQYISSNLAWYQQKPGKAPKLLIYAASSLQSGVPSRFSGSGSGTDFTLTISSLQPEDFATYYCQQANSFPLTFGGGTKVEIK
For the molecule B3, the values for the Kd in data set [1] (setting [3]) and in data set [1] (apparent) were 1.4 nM and 0.0014 s⁻¹, respectively. Besides, in data set [1] (apparent), the “Ka” value stood at 950000 M⁻¹ s⁻¹.

B4: 26D5-296-D03-mAb: human IgG1f/kappa mAb; VH SEQ ID NO: 76, VL SEQ ID NO: 88 (antibody, V domains shown)
VH: EVQLVESGGGLIQPGGSLRLSCAASGFTVSSNYMSWVRQAPGKGLEWVSFIYSGGETFYADSVKGRFTISRDNSKNTLYLQMNSLRAEDTAVYYCARGGFGGGDYWGQGTLVTVSS
VL: DIQMTQSPSSVSASVGDRVTITCRASQGISSNLAWYQQKPGKAPKLLIYAASSLQSGVPSRFSGSGSGTDFTLTISSLQPEDFATYYCQQANSFPLTFGGGTKVEIK
In the case of B4, in data set [1] (setting [3]), the Kd was 0.71 nM. In data set [1] (apparent), the “Ka” value amounted to 1.7e+06 M⁻¹ s⁻¹ and the “Kd” value was found to be 0.0012 s⁻¹.

B5: P1-073708-1: 26D5 parent Fab (Fab 26D5-GV-Q); VH SEQ ID NO: 82, VL SEQ ID NO: 99 (antibody, V domains shown)
VH: EVQLVESGGGLIQPGGSLRLSCAASGFTVSSNYMSWVRQAPGKGLEWVSFIYSGGRTYYADSVKGRFTISRDNSKNTLYLQMNSLRAEDTAVYYCARGGFGGGDYWGQGTLVTVSS
VL: DIQMTQSPSSVSASVGDRVTITCRASQGISSWLAWYQQKPGKAPKLLIYAASSLQSGVPSRFSGSGSGTDFTLTISSLQPEDFATYYCQQANSFPLTFGGGTKVEIK
For the molecule B5, the concentration for half-maximal inhibition (IC50) was > 28.2 nM in data set [2] (24 hr, read-out: T24 hr IC50); > 28.8 nM in data set [2] (48 hr, read-out: T48 hr IC50); 2.6 nM in data set [2] (setting [4]). Further, in data set [2], the “T24 hr IC50 shift” value is recorded as >25.7 nM. For the same molecule, the “T48 hr IC50 shift” value in data set [2] is given as >26.2 nM.

B6: 26D5-295-A08-mAb: human IgG1f/kappa mAb; VH SEQ ID NO: 74, VL SEQ ID NO: 88 (antibody, V domains shown)
VH: EVQLVESGGGLIQPGGSLRLSCAASGFTVSENYMSWVRQAPGKGLEWVSFIYPGGRTYYADSVKGRFTISRDNSKNTLYLQMNSLRAEDTAVYYCARAGFGGGDYWGQGTLVTVSS
VL: DIQMTQSPSSVSASVGDRVTITCRASQGISSNLAWYQQKPGKAPKLLIYAASSLQSGVPSRFSGSGSGTDFTLTISSLQPEDFATYYCQQANSFPLTFGGGTKVEIK
Turning to B6, the Kd in data set [1] (setting [3]) was found to be 0.58 nM. In data set [1] (apparent), the “Ka” value was 1e+06 M⁻¹ s⁻¹ and the “Kd” value is 0.00059 s⁻¹.

B7: P1-074468-1: first round optimization progeny Fab; VH SEQ ID NO: 62, VL SEQ ID NO: 88 (antibody, V domains shown)
VH: EVQLVESGGGLIQPGGSLRLSCAASGFQVSSNAMSWVRQAPGKGLEWVSFIYPGGRTYYADSVKGRFTISRDNSKNTLYLQMNSLRAEDTAVYYCARGGFGGGDYWGQGTLVTVSS
VL: DIQMTQSPSSVSASVGDRVTITCRASQGISSNLAWYQQKPGKAPKLLIYAASSLQSGVPSRFSGSGSGTDFTLTISSLQPEDFATYYCQQANSFPLTFGGGTKVEIK
For the molecule B7, the concentration for half-maximal inhibition (IC50) in data set [2] (24 hr, read-out: T24 hr IC50) is > 38.2 nM; in data set [2] (48 hr, read-out: T48 hr IC50), > 43.1 nM; in data set [2] (setting [4]), 2.2 nM. For the same molecule, the “T24 hr IC50 shift” value in data set [2] is reported as >36.0 nM.

B8: 26D5-295-D07-mAb: human IgG1f/kappa mAb; VH SEQ ID NO: 75, VL SEQ ID NO: 88 (antibody, V domains shown)
VH: EVQLVESGGGLIQPGGSLRLSCAASGFQVSENYMSWVRQAPGKGLEWVSFIYSGGRTYYADSVKGRFTISRDNSKNTLYLQMNSLRAEDTAVYYCARGGFGGGDYWGQGTLVTVSS
VL: DIQMTQSPSSVSASVGDRVTITCRASQGISSNLAWYQQKPGKAPKLLIYAASSLQSGVPSRFSGSGSGTDFTLTISSLQPEDFATYYCQQANSFPLTFGGGTKVEIK
In the case of B8, the Kd in data set [1] (setting [3]) came out at 1 nM. Moreover, in data set [1] (apparent), the “Ka” value amounted to 800000 M⁻¹ s⁻¹ and the “Kd” value was found to be 0.00081 s⁻¹.
